The record followed here is paper PMC11637584 (2024).

This experiment concerns the target Ubiquitin (Homo sapiens, UniProt P0CG48). Briefly: BLI. A general note: In BLI a coated tip is dipped into the sample, and binding shifts an interference pattern.

B1: MERS-CoV papain-like protease (PLpro) PLpro (protein)
chain: QLTIEVLVTVDGVNFRTVVLNNKNTYRSQLGCVFFNGADISDTIPDEKQNGHSLYLADNLTADETKALKELYGPVDPTFLHRFYSLKAAVHKWKMVVCDKVRSLKLSDNNCYLNAVIMTLDLLKDIKFVIPALQHAFMKHKGGDSTDFIALIMAYGNCTFGAPDDASRLLHTVLAKAELCCSARMVWREWCNVCGIKDVVLQGLKACCYVGVQTVEDLRARMTYVCQCGGERHRQIVEHTTPWLLLSGTPNEKLVTTSTAPDFVAFNVFQGIETAVGHYVHARLKGGLILKFDSGTVSKTSDWKCKVTDVLFPGQKYSSDCN
A word on the Kd: it is the constant that tells how readily two partners part at equilibrium. The low end stands for tighter binding, the high end for weaker binding. B1 yielded a Kd of 40.8 µM. That is a double-digit micromolar value.
